Measured values reported in patent publication US20200140562A1.
Like-named read-outs stand apart in the source and are kept apart here.

Experiments:
[1] = target: human OX40 on cells (CHO-hOX40, 293HEK-hOX40, Jurkat-hOX40, activated primary CD4+ T cells) (human) (UniProt P43489); experiment: flow cytometry, CHO-hOX40, 12.5 nM
[2] = target: human OX40 on cells (CHO-hOX40, 293HEK-hOX40, Jurkat-hOX40, activated primary CD4+ T cells) (human) (UniProt P43489); experiment: flow cytometry, CHO-hOX40, 3.125 nM
[3] = target: human OX40 on cells (CHO-hOX40, 293HEK-hOX40, Jurkat-hOX40, activated primary CD4+ T cells) (human) (UniProt P43489); experiment: flow cytometry, CHO-hOX40, 200 nM
[4] = target: human OX40 on cells (CHO-hOX40, 293HEK-hOX40, Jurkat-hOX40, activated primary CD4+ T cells) (human) (UniProt P43489); experiment: flow cytometry, CHO-hOX40, 0.78125 nM
[5] = target: human OX40 on cells (CHO-hOX40, 293HEK-hOX40, Jurkat-hOX40, activated primary CD4+ T cells) (human) (UniProt P43489); experiment: flow cytometry, CHO-hOX40, 0.024414063 nM
[6] = target: human OX40 on cells (CHO-hOX40, 293HEK-hOX40, Jurkat-hOX40, activated primary CD4+ T cells) (human) (UniProt P43489); experiment: flow cytometry, CHO-hOX40, 0.1953125 nM
[7] = target: human OX40 on cells (CHO-hOX40, 293HEK-hOX40, Jurkat-hOX40, activated primary CD4+ T cells) (human) (UniProt P43489); experiment: flow cytometry, CHO-hOX40, 100 nM
[8] = target: human OX40 on cells (CHO-hOX40, 293HEK-hOX40, Jurkat-hOX40, activated primary CD4+ T cells) (human) (UniProt P43489); experiment: flow cytometry, CHO-hOX40, 6.25 nM
[9] = target: human OX40 on cells (CHO-hOX40, 293HEK-hOX40, Jurkat-hOX40, activated primary CD4+ T cells) (human) (UniProt P43489); experiment: flow cytometry, CHO-hOX40, 50 nM
[10] = target: human OX40 on cells (CHO-hOX40, 293HEK-hOX40, Jurkat-hOX40, activated primary CD4+ T cells) (human) (UniProt P43489); experiment: flow cytometry, CHO-hOX40, 25 nM
[11] = target: human OX40 on cells (CHO-hOX40, 293HEK-hOX40, Jurkat-hOX40, activated primary CD4+ T cells) (human) (UniProt P43489); experiment: flow cytometry, CHO-hOX40, 0.048828125 nM
[12] = target: human OX40 on cells (CHO-hOX40, 293HEK-hOX40, Jurkat-hOX40, activated primary CD4+ T cells) (human) (UniProt P43489); experiment: flow cytometry, CHO-hOX40, […]
[13] = target: human OX40 on cells (CHO-hOX40, 293HEK-hOX40, Jurkat-hOX40, activated primary CD4+ T cells) (human) (UniProt P43489); experiment: flow cytometry, CHO-hOX40, 0.09765625 nM
[14] = target: human OX40 on cells (CHO-hOX40, 293HEK-hOX40, Jurkat-hOX40, activated primary CD4+ T cells) (human) (UniProt P43489); experiment: flow cytometry, CHO-hOX40, 0.390625 nM
[15] = target: human OX40 on cells (CHO-hOX40, 293HEK-hOX40, Jurkat-hOX40, activated primary CD4+ T cells) (human) (UniProt P43489); experiment: flow cytometry, CHO-hOX40, 100 nM blocker, competitor OX40L-hFc-fluorescein
[16] = target: human OX40_Fc (R&D Systems) (human) (UniProt P43489); experiment: BLI, IgG1 on tip, hOX40-Fc 50 nM, avid
[17] = target: cyno OX40_Fc (Acro Biosystems) (cyno); experiment: BLI, IgG1 on tip, cyno OX40-Fc 100 nM, avid
[18] = target: human OX40 on cells (CHO-hOX40, 293HEK-hOX40, Jurkat-hOX40, activated primary CD4+ T cells) (human) (UniProt P43489); experiment: flow cytometry, activated CD4+ T cells, donor 2, 100 nM
[19] = target: human OX40 on cells (CHO-hOX40, 293HEK-hOX40, Jurkat-hOX40, activated primary CD4+ T cells) (human) (UniProt P43489); experiment: flow cytometry, 293HEK-hOX40, 40 nM
[20] = target: human OX40 on cells (CHO-hOX40, 293HEK-hOX40, Jurkat-hOX40, activated primary CD4+ T cells) (human) (UniProt P43489); experiment: flow cytometry, 293HEK-hOX40, 8 nM
[21] = target: human OX40 on cells (CHO-hOX40, 293HEK-hOX40, Jurkat-hOX40, activated primary CD4+ T cells) (human) (UniProt P43489); experiment: flow cytometry, MFI on CHO-hOX40 over wild-type CHO
[22] = target: human OX40 on cells (CHO-hOX40, 293HEK-hOX40, Jurkat-hOX40, activated primary CD4+ T cells) (human) (UniProt P43489); experiment: flow cytometry, 293HEK-hOX40, 200 nM
[23] = target: human OX40 on cells (CHO-hOX40, 293HEK-hOX40, Jurkat-hOX40, activated primary CD4+ T cells) (human) (UniProt P43489); experiment: cell-based or functional assay
[24] = target: cyno OX40_Fc (Acro Biosystems) (cyno); experiment: BLI, IgG1 on tip, cyno OX40-Fc 100 nM, avid; remark: listed apart in the source
[25] = target: human OX40 on cells (CHO-hOX40, 293HEK-hOX40, Jurkat-hOX40, activated primary CD4+ T cells) (human) (UniProt P43489); experiment: flow cytometry, CHO-hOX40
[26] = target: human OX40 on cells (CHO-hOX40, 293HEK-hOX40, Jurkat-hOX40, activated primary CD4+ T cells) (human) (UniProt P43489); experiment: flow cytometry, CHO-hOX40, 100 nM; remark: listed apart in the source
[27] = target: human OX40 on cells (CHO-hOX40, 293HEK-hOX40, Jurkat-hOX40, activated primary CD4+ T cells) (human) (UniProt P43489); experiment: flow cytometry, 293HEK-hOX40, 1.6 nM
[28] = target: human OX40 on cells (CHO-hOX40, 293HEK-hOX40, Jurkat-hOX40, activated primary CD4+ T cells) (human) (UniProt P43489); experiment: flow cytometry, MFI on CHO-hOX40 over wild-type CHO; remark: listed apart in the source
[29] = target: human OX40_Fc (R&D Systems) (human) (UniProt P43489); experiment: BLI, IgG1 on tip, hOX40-Fc 50 nM, avid; remark: listed apart in the source
[30] = target: human OX40 on cells (CHO-hOX40, 293HEK-hOX40, Jurkat-hOX40, activated primary CD4+ T cells) (human) (UniProt P43489); experiment: flow cytometry, activated CD4+ T cells, donor 1, 100 nM

Chain of human OX40 on cells (CHO-hOX40, 293HEK-hOX40, Jurkat-hOX40, activated primary CD4+ T cells) (human) (P43489 29-277): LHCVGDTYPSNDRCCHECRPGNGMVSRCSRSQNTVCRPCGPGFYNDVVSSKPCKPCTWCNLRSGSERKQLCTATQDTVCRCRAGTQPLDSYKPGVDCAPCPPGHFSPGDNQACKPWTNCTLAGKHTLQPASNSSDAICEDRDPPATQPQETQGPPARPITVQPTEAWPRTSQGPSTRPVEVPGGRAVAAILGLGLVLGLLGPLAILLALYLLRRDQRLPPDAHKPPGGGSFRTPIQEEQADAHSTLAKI
Chain of human OX40_Fc (R&D Systems) (human) (P43489 29-216): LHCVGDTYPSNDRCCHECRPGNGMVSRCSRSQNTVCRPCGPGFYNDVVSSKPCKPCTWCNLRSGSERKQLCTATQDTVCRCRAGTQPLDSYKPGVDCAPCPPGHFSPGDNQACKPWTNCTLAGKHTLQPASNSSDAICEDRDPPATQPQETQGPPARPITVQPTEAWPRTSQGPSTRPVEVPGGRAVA

B1: IgG2 control (antibody, V domains shown)
VH: QLQLQKSGPGLVKPSETLSLTCTVSGFTFSNYAMGWIRQPPGKGLEWIGAISGSGGSTYYADSVKGRVTISVDTSKNQFSLKLSSVTAADTAVYYCARGGPGWYAADVWGQGTLVTVSS
VL: EIVLTQSPATLSLSPGERATLSCRASQSISSYLNWYQQKPGQAPRLLIYAASSLQSGIPARFSGSGSGTDFTLTISSLEPEDFAVYYCQQADLPAFAFGGGTKVEIKR
Question: What does the source list for B1?
Answer: MFI [1]: 11900 MFI; MFI [2]: 4150 MFI; MFI [3]: 216000 MFI; MFI [4]: 2250 MFI; MFI [5]: 1510 MFI; MFI [6]: 1680 MFI; MFI [7]: 93000 MFI; MFI [8]: 6400 MFI; MFI [9]: 44100 MFI; MFI [10]: 22100 MFI; MFI [11]: 1560 MFI; MFI [12]: 2900 MFI; MFI [13]: 1590 MFI; MFI [14]: 1890 MFI

B2: Hu106-222, humanized IgG1 OX40 antibody (antibody, from another filing, V domains shown)
VH: QVQLVQSGSELKKPGASVKVSCKASGYTFTDYSMHWVRQAPGQGLKWMGWINTETGEPTYADDFKGRFVFSLDTSVSTAYLQISSLKAEDTAVYYCANPYYDYVSYYAMDYWGQGTTVTVSS
VL: DIQMTQSPSSLSASVGDRVTITCKASQDVSTAVAWYQQKPGKAPKLLIYSASYLYTGVPSRFSGSGSGTDFTFTISSLQPEDIATYYCQQHYSTPRTFGQGTKLEIK
Question: What does the source list for B2?
Answer: MFI [1]: 2.18e+06 MFI; MFI [2]: 1.77e+06 MFI; MFI of OX40L signal on CHO-OX40 cells [15]: 25800 MFI; MFI [3]: 2.64e+06 MFI; MFI [4]: 600000 MFI; Kd [16]: 0.475 nM; Kd [17]: 5.17 nM; MFI [5]: 26700 MFI; MFI [6]: 181000 MFI; CHO-OX40 binding intensity (MFI) [7]: 164000 MFI; MFI [7]: 2.5e+06 MFI; MFI [8]: 2.02e+06 MFI; MFI [18]: 136000 MFI; MFI [19]: 1.8e+06 MFI; MFI [20]: 1.74e+06 MFI; Fold difference [21]: 2630 fold; MFI [22]: 1.79e+06 MFI; NFkB-Luc fold change in Jurkat stimulated by PHA+ anti-CD28 (fold over IgG4 control) [23]: 1.93; NFkB-Luc fold change in Jurkat stimulated by anti-CD3+ anti-CD28 (fold over IgG4 control) [23]: 1.77; MFI [9]: 2.34e+06 MFI; MFI [10]: 2.24e+06 MFI; MFI [11]: 49800 MFI; Kd [24]: 4.96 nM; MFI [12]: 1.25e+06 MFI; EC50 [25]: 1.94 nM; CHO-OX40 binding intensity (MFI) [26]: 183000 MFI; MFI [13]: 77600 MFI; MFI [27]: 650000 MFI; Fold difference [28]: 1700 fold; Kd [29]: 0.25 nM; MFI [30]: 115000 MFI; MFI [14]: 474000 MFI
